This passage reports EC50 results from patent publication US20250092135A1 (NANJING LEADS BIOLABS, published 2025).

For this test, the target named is T1, human CD3 protein endogenously expressed on Jurkat cells (human, UniProt P07766 23-207).
T1 construct: whole, on cells; The whole CD3 complex is on the cells; also called CD3 on Jurkat cells; CD3 on Jurkat/NFAT-luc cells
Briefly: flow cytometry, Jurkat cells (endogenous CD3), PE anti-human IgG Fc secondary, MFI; EC50 table under the plot, unit from the axis Conc.(nM); curve flat at about 1250 up to about 33 nM, about 1900-2200 at the two top concentrations. How it is done:
(3) Whether the anti-CD3/anti-MUC16 bispecific antibodies in the present invention could bind to the CD3 protein endogenously expressed on Jurkat cells (Cell Bank of Type Culture Collection Committee of the Chinese Academy of Sciences, Cat #SCSP-513) was determined by cell binding experiments. Detection was performed using the flow cytometry described above, with the following differences: the dilution gradient for the test bispecific antibody was: a maximum concentration of 200 nM, starting from a second concentration of 100 nM, 5-fold dilution, 10 points; the bispecific antibodies were added to Jurkat cells, and the cells were incubated at 4° C. for 30 min. The cells were washed twice with PBS, and then fluorescent secondary antibody R-PE-conjugated AffiniPure Goat Anti-Human IgG, Fcγ Fragment Specific was added. The cells were incubated at 4° C. for 30 min. The cells were washed twice with PBS and then resuspended, and finally, fluorescence signals were detected using a BD Accuri C5 (BD Bioscience) flow cytometer.
(In flow cytometry, cells or beads pass a laser one at a time.)

T1 sequence (P07766 23-207): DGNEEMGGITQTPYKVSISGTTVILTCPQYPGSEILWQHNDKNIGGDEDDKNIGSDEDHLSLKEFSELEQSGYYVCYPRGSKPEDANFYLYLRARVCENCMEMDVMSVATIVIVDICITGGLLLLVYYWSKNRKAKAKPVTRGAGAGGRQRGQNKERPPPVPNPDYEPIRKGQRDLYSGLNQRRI

B1: anti-CD3/MUC16 bispecific antibody MCH7-23L2-MCH7 (bispecific antibody, human IgG1, kappa, L234A L235A)
heavy 1: QVQLVQSGAEVKKPGASVKVSCKASGYTFTDYNIHWVRQAPGQGLEWMGYIYPYNGVSDYNQNFKSRVTMTTDTSTSTAYMELRSLRSDDTAVYYCARWDFGSGYYFDYWGQGTLVTVSSASTKGPSVFPLAPSSKSTSGGTAALGCLVKDYFPEPVTVSWNSGALTSGVHTFPAVLQSSGLYSLSSVVTVPSSSLGTQTYICNVNHKPSNTKVDKKVEPKSCEVQLVESGGGLVQPGGSLKLSCAASGFTFSTYAMNWVRQAPGKGLEWVGRIRSKYNNYATYYADSVKDRFTISRDDSKNTLYLQMNSLKTEDTAVYYCTRHGNFGNSYVSWFAYWGQGTTVTVSSGGGGSGGGGSGGGGSQAVVTQEPSLTVSPGGTVTLTCRSSTGAVTTSNYANWVQQKPGQAPRGLIGGTNKRAPGVPARFSGSLLGGKAALTLSGAQPEDEAEYFCALWYSNLWVFGGGTKLTVLGEPKSSDKTHTCPPCPAPEAAGGPSVFLFPPKPKDTLMISRTPEVTCVVVAVSHEDPEVKFNWYVDGVEVHNAKTKPREEQYNSTYRVVSVLTVLHQDWLNGKEYKCKVSNKALAAPIEKTISKAKGQPREPQVCTLPPSRDELTKNQVSLSCAVKGFYPSDIAVEWESNGQPENNYKTTPPVLDSDGSFFLVSKLTVDKSRWQQGNVFSCSVMHEALHNHYTQKSLSLSPGK
heavy 2: not shown
light: EIVLTQSPATLSLSPGERATLSCRASSSVIYMSWYQQKPGQAPRLLIYGTSTLASGIPARFSGSGSGTDFTLTISSLEPEDFAVYYCQQWSSNPFTFGQGTKLEIKRTVAAPSVFIFPPSDEQLKSGTASVVCLLNNFYPREAKVQWKVDNALQSGNSQESVTEQDSKDSTYSLSSTLTLSKADYEKHKVYACEVTHQGLSSPVTKSFNRGEC
notes: MCH7-23L2ScFv-Hole (VH-CH1-scFv-Fc) + MCH7-KIH-Knob + two light chains MCL4 LC
For orientation: EC50 means the concentration giving half of the maximal effect. Lower therefore signals an effect from little substance. Regarding B1, the concentration for a half-maximal effect (EC50) is approximately 39.3 nM.
